Measured values from patent publication US5985608.

Target: endogenous β-actin of the bovine neutrophil plasma membrane (bovine) (UniProt P60712)
Assay: control of the co-immunoprecipitation, protein A-agarose beads

For “nonspecific rabbit IgG (polyclonal serum or antibody)”, which β-actin co-precipitated relative to the anti-pepA immunoprecipitate is on record?
The β-actin co-precipitated relative to the anti-pepA immunoprecipitate was less than 5%.
